Laboratory results as given in US20190309059A1 (SHANGHAI PHARMAEXPLORER, published 2019).

How the values were obtained:
[1] = target: his-labeled human IL-13 (immunogen A) (human) (UniProt P35225); test: cell-based or functional assay
[2] = target: his-labeled human IL-13 (immunogen A) (human) (UniProt P35225); test: FACS blocking, biotin-IL-13 on IL-13Ra2 HEK293 cells; antibody at 0.01 nM
[3] = target: his-labeled human IL-13 (immunogen A) (human) (UniProt P35225); test: FACS blocking, biotin-IL-13 on IL-13Ra2 HEK293 cells; antibody at 0.05 nM
[4] = target: his-labeled human IL-13 (immunogen A) (human) (UniProt P35225); test: FACS blocking, biotin-IL-13 on IL-13Ra2 HEK293 cells; antibody at 0.27 nM
[5] = target: his-labeled human IL-13 (immunogen A) (human) (UniProt P35225); test: FACS blocking, biotin-IL-13 on IL-13Ra2 HEK293 cells; antibody at 1.33 nM
[6] = target: his-labeled human IL-13 (immunogen A) (human) (UniProt P35225); test: FACS blocking, biotin-IL-13 on IL-13Ra2 HEK293 cells; antibody at 6.67 nM
[7] = target: his-labeled human IL-13 (immunogen A) (human) (UniProt P35225); test: FACS blocking, biotin-IL-13 on IL-13Ra2 HEK293 cells; antibody at 0.002 nM
[8] = target: his-labeled human IL-13 (immunogen A) (human) (UniProt P35225); test: FACS blocking, biotin-IL-13 on IL-13Ra2 HEK293 cells; antibody at 33.33 nM
[9] = target: his-labeled human IL-13 (immunogen A) (human) (UniProt P35225); test: FACS blocking, biotin-IL-13 on IL-13Ra2 HEK293 cells; antibody at 166.67 nM
[10] = target: his-labeled human IL-13 (immunogen A) (human) (UniProt P35225); test: FACS blocking, biotin-IL-13 on IL-13Ra1/IL-4Ra HEK293 cells; antibody at 0.01 nM
[11] = target: his-labeled human IL-13 (immunogen A) (human) (UniProt P35225); test: FACS blocking, biotin-IL-13 on IL-13Ra1/IL-4Ra HEK293 cells; antibody at 0.05 nM
[12] = target: his-labeled human IL-13 (immunogen A) (human) (UniProt P35225); test: FACS blocking, biotin-IL-13 on IL-13Ra1/IL-4Ra HEK293 cells; antibody at 0.27 nM
[13] = target: his-labeled human IL-13 (immunogen A) (human) (UniProt P35225); test: FACS blocking, biotin-IL-13 on IL-13Ra1/IL-4Ra HEK293 cells; antibody at 1.33 nM
[14] = target: his-labeled human IL-13 (immunogen A) (human) (UniProt P35225); test: FACS blocking, biotin-IL-13 on IL-13Ra1/IL-4Ra HEK293 cells; antibody at 6.67 nM
[15] = target: his-labeled human IL-13 (immunogen A) (human) (UniProt P35225); test: FACS blocking, biotin-IL-13 on IL-13Ra1/IL-4Ra HEK293 cells; antibody at 0.002 nM
[16] = target: his-labeled human IL-13 (immunogen A) (human) (UniProt P35225); test: FACS blocking, biotin-IL-13 on IL-13Ra1/IL-4Ra HEK293 cells; antibody at 33.33 nM
[17] = target: his-labeled human IL-13 (immunogen A) (human) (UniProt P35225); test: FACS blocking, biotin-IL-13 on IL-13Ra1/IL-4Ra HEK293 cells; antibody at 166.67 nM
[18] = target: his-labeled human IL-13 (immunogen A) (human) (UniProt P35225); test: FACS blocking assay: antibody titrated with biotin-labeled immunogen A (20 ng/mL); blocked partner IL-13Ra2 on HEK293 clone 1A1; Alexa 488 streptavidin

B1: 70F10A10 (lead antibody, mouse hybridoma) (antibody, V domains shown)
VH: QIQLQQSGAELARPGASVKLSCKASGYTFTSYGISWVKQRDGQGLEWIGEIYPRSGNTDYNEKFKGKATLTADKSSSTAYMELRSLTSEDSAVYFCSSFTTLVPTDYFDYWGQGTTLTVSS
VL: DIMMSQSPSSLAVSVGEKVSMTCKSSQSLLYSSNQKNYLAWYQQKPGQSPKMLIYWASTRETGVPDRFTGSGSGTDFTLTISSVMAEDLAVYYCHQYFTYPRTFGDGTKLEVK
- TARC (pg/mL), A549 cells + IL-13 5 ng/mL + TNFα; antibody at 0.001 nM [1]: 2000 pg/mL
- TARC (pg/mL), A549 cells + IL-13 5 ng/mL + TNFα; antibody at 0.004 nM [1]: 1830 pg/mL
- TARC (pg/mL), A549 cells + IL-13 5 ng/mL + TNFα; antibody at 0.021 nM [1]: 1600 pg/mL
- TARC (pg/mL), A549 cells + IL-13 5 ng/mL + TNFα; antibody at 0.11 nM [1]: 1630 pg/mL
- TARC (pg/mL), A549 cells + IL-13 5 ng/mL + TNFα; antibody at 0.5 nM [1]: 1500 pg/mL
- TARC (pg/mL), A549 cells + IL-13 5 ng/mL + TNFα; antibody at 2.7 nM [1]: 1140 pg/mL
- TARC (pg/mL), A549 cells + IL-13 5 ng/mL + TNFα; antibody at 13.3 nM [1]: 656 pg/mL
- TARC (pg/mL), A549 cells + IL-13 5 ng/mL + TNFα; antibody at 66.7 nM [1]: 207 pg/mL
- mean fluorescence intensity [2]: 75.6
- mean fluorescence intensity [3]: 70.8
- mean fluorescence intensity [4]: 46.8
- mean fluorescence intensity [5]: 46
- mean fluorescence intensity [6]: 42.3
- mean fluorescence intensity [7]: 76.7
- mean fluorescence intensity [8]: 39.1
- mean fluorescence intensity [9]: 37.8
- mean fluorescence intensity [10]: 73.5
- mean fluorescence intensity [11]: 67.6
- mean fluorescence intensity [12]: 51.9
- mean fluorescence intensity [13]: 30.7
- mean fluorescence intensity [14]: 24.7
- mean fluorescence intensity [15]: 72.5
- mean fluorescence intensity [16]: 20.3
- mean fluorescence intensity [17]: 19.3
- IC50 (read off the curve) [18]: 0.1 nM
